Like-named read-outs stand apart in the source and are kept apart here.
Experiments:
[1] = biological target: T1, mouse CD47 (mouse, UniProt Q61735 19-140, limits assumed); assay: ELISA, coated mouse CD47 ECD Fc, supernatant, anti-c-Myc HRP
T1 sequence (looked up): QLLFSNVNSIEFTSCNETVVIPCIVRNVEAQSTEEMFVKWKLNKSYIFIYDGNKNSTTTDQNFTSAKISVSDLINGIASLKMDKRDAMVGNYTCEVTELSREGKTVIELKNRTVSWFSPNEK
Description: 100 μl of the collected supernatant was added to the ELISA plates and incubated at 25° C. for 1 hour. After the incubation, goat anti-c-Myc HRP with a dilution ratio of 1:10000 was added to the plate, and TMB was added for color development. The absorbance value at 450 nm was measured using a Varioskan™ LUX plate reader.

[2] = biological target: T2, human CD47 (hCD47) (human, UniProt Q08722 19-139, limits assumed); assay: blocking ELISA, coated hCD47 ECD Fc, supernatant + biotin-SIRPα ECD His
T2 sequence (Q08722 19-139 limits assumed): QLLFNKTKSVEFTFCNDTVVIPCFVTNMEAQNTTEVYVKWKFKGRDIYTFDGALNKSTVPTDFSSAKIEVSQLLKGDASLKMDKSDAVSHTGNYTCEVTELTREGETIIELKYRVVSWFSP
Description: (§1) 150 μl of the collected supernatant and 20 μl biotin-labeled SIRPα ECD His protein (final concentration: 2.5 μg/ml) were added to the ELISA plates and incubated at 25° C. for 1 hour. After the incubation, avidin HRP (BioLegend, Cat #: 79004) with a dilution ratio of 1:1000 was added to the plate, and TMB was added for color development. The absorbance value at 450 nm was measured using a Varioskan™ LUX plate reader.

[3] = biological target: T2, human CD47 (hCD47); assay: hCD47 binding OD over expression OD
Description: (§2) 30 μl of the collected supernatant was added to the ELISA plates and incubated at 25° C. for 1 hour. After the incubation, goat anti-c-Myc HRP with a dilution ratio of 1:10000 was added to the plate, and TMB was added for color development. The absorbance value at 450 nm was measured using a Varioskan™ LUX plate reader.

[4] = biological target: T2, human CD47 (hCD47); assay: ELISA, coated hCD47 ECD Fc, supernatant, anti-c-Myc HRP
Description: as §2

[5] = biological target: T2, human CD47 (hCD47); assay: blocking ELISA, coated hCD47 ECD Fc, supernatant + biotin-SIRPα ECD His; remark: listed apart in the source
Description: as §1

[6] = biological target: T2, human CD47 (hCD47); assay: hCD47 binding OD over expression OD; remark: listed apart in the source
Description: as §2

[7] = biological target: T2, human CD47 (hCD47); assay: ELISA, coated hCD47 ECD Fc, supernatant, anti-c-Myc HRP; remark: listed apart in the source
Description: as §2

Binder	mCD47 binding (OD) [1] [OD]	Blocking (OD) [2] [OD]	Blocking ability (%) [2] [%]	hCD47 binding (B/E) [3]	hCD47 binding (OD) [4] [OD]	Blocking (OD) [5] [OD]	Blocking ability (%) [5] [%]	hCD47 binding (B/E) [6]	hCD47 binding (OD) [7] [OD]
4RP13-3-11A (designed binder, tested as bacterial supernatant; also called S-2; hSIRPα-mt3 (IgV domain)) hSIRPα IgV domain mutant: EEELQVIQPDKSVSVAAGESAILHCTVTSLWPVGPIQWFRGAGPARELIYNQKAWPFPRVTTVSESTKRENMDFSISISNITPADAGTYYCVKFRKGSPDTEFKSGAGTELSVRAKPS	0.348	0.319	93.3	1.53	1.67				
2R-1-4B (designed binder, tested as bacterial supernatant; also called hSIRPα-mt14 (IgV domain)) hSIRPα IgV domain mutant: EEELQVIQPDKSVSVAAGESAILHCTVTSLAPVGPIQWFRGAGPARELIYNQKLDSFPRVTTVSESTKRESMDFSISISNITPADAGTYYCVKFRKGSPDTEFKSGAGTELSVRAKPS						1.36	27.9	0.77	0.946
4RP13-3-10B (designed binder, tested as bacterial supernatant; also called S-26; hSIRPα-mt12 (IgV domain)) hSIRPα IgV domain mutant: EEELQVIQPDKSVSVAAGESAILHCTVTSLYPVGPIQWFRGAGPARELIYNQKGRRFPRVTTVSESTKRANMDFSISISNITPADAGTYYCVKFRKGSPDTEFKSGAGTELSVRAKPS		0.299	94.7	1.33	1.65				
4RP13-4-5C (designed binder, tested as bacterial supernatant; also called S-21; hSIRPα-mt5 (IgV domain)) hSIRPα IgV domain mutant: EEELQVIQPDKSVSVAAGESAILNCTVTSLIPVGPIQWFRGAGPARELIYNQKHQTFPRVTTVSEQTKRENRDFSISISNITPADAGTYYCVKFRKGSPDTEFKSGAGTELSVRAKPS		0.21	96.3	1.65	1.86				
4RP13-1-2G (designed binder, tested as bacterial supernatant; also called S-5; hSIRPα-mt4 (IgV domain)) hSIRPα IgV domain mutant: EEELQVIQPDKSVSVAAGESAILRCTVTSLWPVGPIQWFRGAGPARELIYNQKAFIFPRVTTVSESTKRGNMDFSISISNITPADAGTYYCVKFRKGSPDTEFKSGAGTELSVRAKPS	0.412	0.194	96.9	2.27	1.94				
4RP13-3-4D (designed binder, tested as bacterial supernatant; also called S-11; hSIRPα-mt11 (IgV domain)) hSIRPα IgV domain mutant: EEELQVIQPDKSVSVAAGESAILHCTVTSLLPVGPIQWFRGAGPARELIYNQKSKVFPRVTTVSESTKRRNMDFSISISNITPADAGTYYCVKFRKGSPDTEFKSGAGTELSVRAKPS		0.229	99.8	1.7	1.79				
2R-1-7B (designed binder, tested as bacterial supernatant; also called hSIRPα-mt7 (IgV domain)) hSIRPα IgV domain mutant: EEELQVIQPDKSVSVAAGESAILHCIVTSLIPVGPIQWFRGAGPARELIYNQKILTFPRVTTVSESTKRENYDFSISISNITPADAGTYYCVKFRKGSPDTEFKSGAGTELSVRAKPS						1.43	23.3	0.78	0.687
2R-1-10B (designed binder, tested as bacterial supernatant; also called hSIRPα-mt6 (IgV domain)) hSIRPα IgV domain mutant: EEELQVIQPDKSVSVAAGESAILHCTVTSLIPVGPIQWFRGAGPARELIYNQKNLIFPRVTTVSESGKRENMDFSISISNITPADAGTYYCVKFRKGSPDTEFKSGAGTELSVRAKPS						1.37	27.2	0.46	0.51
4RP13-5-6G (designed binder, tested as bacterial supernatant; also called hSIRPα-mt15 (IgV domain)) hSIRPα IgV domain mutant: EEELQVIQPDKSVSVAAGESAILRCTVTSLTPVGPIQWFRGAGPARELIYNQKAKQFPRVTTVSESTKRENMIFSISISNITPADAGTYYCVKFRKGSPDTEFKSGAGTELSVRAKPS						1.11	46.3	1.01	1.65
4RP13-1-7A (designed binder, tested as bacterial supernatant; also called S-19; hSIRPα-mt8 (IgV domain)) hSIRPα IgV domain mutant: EEELQVIQPDKSVSVAAGESAILHCTVTSLKPVGPIQWFRGAGPARELIYNQKRDTFPRVTTVSESTKRENRDFSISISNITPADAGTYYCVKFRKGSPDTEFKSGAGTELSVRAKPS	0.293	0.215	95.8	2.44	1.9				
4RP13-3-7B (designed binder, tested as bacterial supernatant; also called S-28; hSIRPα-mt10 (IgV domain)) hSIRPα IgV domain mutant: EEELQVIQPDKSVSVAAGESAILTCTVTSLYPVGPIQWFRGAGPARELIYNQKRQTFPRVTTVSESTKRFNMDFSISISNITPADAGTYYCVKFRKGSPDTEFKSGAGTELSVRAKPS		0.332	92.4	1.25	1.49	0.332	92.4	1.25	1.49
4RP6-1-10A (designed binder, tested as bacterial supernatant; also called S-16; hSIRPα-mt13 (IgV domain)) hSIRPα IgV domain mutant: EEELQVIQPDKSVSVAAGESAILHCTVTSLLPVGPIQWFRGAGPARELIYNQKDFLFPRVTTVSESTKRENRDFSISISNITPADAGTYYCVKFRKGSPDTEFKSGAGTELSVRAKPS	0.41	0.45	80.1	2.89	1.87	0.45	80.1	2.89	1.87
2RP-1-3E (designed binder, tested as bacterial supernatant; also called S-7; hSIRPα-mt9 (IgV domain)) hSIRPα IgV domain mutant: EEELQVIQPDKSVSVAAGESAILTCTVTSLWPVGPIQWFRGAGPARELIYNQKGQNFPRVTTVSESTKRFNMDFSISISNITPADAGTYYCVKFRKGSPDTEFKSGAGTELSVRAKPS		0.131	99.9	1.61	1.72				

Source: patent US20250288643A1 (FBD BIOLOGICS, published 2025)
